# Results as given in the supplement of paper PMC12764529.
# ± gives the half width of the 95% confidence interval.
# Columns and labels:
# [1] = folding stability dG unfold from trypsin proteolysis; higher = more stable
# Method in brief: (§1)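 Designed mini-proteins (under 80 residues, no cysteine) in a PA-tagged cDNA display construct were digested with trypsin and chymotrypsin. Each protease was used at 11 concentrations (threefold dilutions) plus a no-protease condition, followed by sequencing. K50 was inferred by Bayesian fitting of sequencing counts, and unfolding free energy was derived against a sequence-predicted unfolded-state K50 and a shared folded-state K50, per protease or combined. Only designs with AlphaFold2 dimer inter-PAE above 15 were kept.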
# [2] = folding stability dG unfold from chymotrypsin proteolysis; higher = more stable
# Method in brief: as §1
# [3] = folding stability dG unfold (combined trypsin and chymotrypsin); higher = more stable
# Method in brief: as §1
Sequence,folding stability dG unfold [1] [kcal/mol],folding stability dG unfold [2] [kcal/mol],folding stability dG unfold [3] [kcal/mol]
SAGGGSSYTLLSESTSTDPATGATLTTTTYRAPDGTIYYDSTLTAPDGTTTGTATAVDPDGTPVTIALSAGG [r13_573_JUSTAS],1.32 ± 0.035,1.39 ± 0.12,1.41 ± 0.1
SAGGGSTSTSTSTSTDPATGATTTTTTTTVPTPDGSGTVTTTTTTVPGAAPDTDTAPVTTTTTTTPTPSAGG [r13_715_JUSTAS],2.49 ± 0.1,2.14 ± 0.086,2.32 ± 0.21
SAGGGSTVTTTTPDGTSVSTTTLPDGTVTATATYPDSTVSTTYDPATNTTTVTTTSGGTTVATTTVAASAGG [r13_748_JUSTAS],2.48 ± 0.11,1.39 ± 0.031,1.89 ± 0.065
SAGGGSVSITLELEEEEEIEEIVNEKGIPEPLEKRIKKKVTITISPPPTLSSSSSVTGLAEKAIEEKSAGGS [r16_359_JUSTAS],-0.425 ± 0.22,0.511 ± 0.069,0.101 ± 0.31
SAGGGSVSVTPVKEIPGPGTTTLYRETHPDDRTVLITYNPATGTVTVTTYKGNTKTSTTTYNTPESLSAGGS [r16_457_JUSTAS],1.05 ± 0.035,1.53 ± 0.13,1.42 ± 0.098
SAGGGSYTIVVELGDKKVVFEIDKEEAVEEAVAKLPELGLEVEVLKKEKVLNEDGKPSVLVEVKVKPSAGGS [r8_336_TrMRF],-0.663 ± 0.17,1.12 ± 0.059,0.631 ± 0.1
SAGGGTYIEIKVTYSDGTTETFTVPAKPEDIETVVKEIEDKLKELGGTITSIKIENGKITIEATIPDSAGGS [r16_662_TrMRF],2.41 ± 0.19,3.3 ± 0.087,3.06 ± 0.18
SAGGHHMTIETFEEPDKLTVVVDGDDPEATREYLLQKVKEESSRKPVKVTFTEDPNGKLTITFDLKEESAGG [r13_158_JUSTAS],-0.568 ± 0.26,-0.186 ± 0.34,-0.17 ± 0.34
SAGGHTIMFPVKSPEQARDEIRDFARDQGLPIEPEDITIEQHEFKDPENGKKYRFFEITIDVTLKPPSAGGS [r16_587_TrROS],0.0514 ± 0.056,1.49 ± 0.11,1.02 ± 0.15
SAGGIEEAIKEGKTVIIRVKVIDKETGKEYERTIEVPANEEISLEELLKALLPPGYEVEIEVVELEPSAGGS [r8_127_TrROS_Hall],3.78 ± 0.33,3.03 ± 0.51,3.65 ± 0.4
SAGGIEIPVNPHPSEDGQPYVMFTLEIEPKDDNGKKQERPIPFMFDSPDDAEEFASEAAPDGYKIRISAGGS [r16_652_TrROS],-0.86 ± 0.48,0.196 ± 0.11,-0.0602 ± 0.15
SAGGIIPIENASWDELLNALKEAAEKGDPNVTITFQDPGRPYWIQIDPDENNIEVEHPNGETWRFKISAGGS [r16_481_TrROS],0.749 ± 0.089,0.995 ± 0.14,0.905 ± 0.18
SAGGIKEVKFDPKTNTLTVYLPEVGATITYNPTAGKLEIYSKDGKPKTIDVPTPSEMKKAILKAYKELKSAG [r5_467_TrMRF],1.82 ± 0.064,2.84 ± 0.069,2.69 ± 0.21
SAGGIKIERDPNMWKFEIPLPNKPLTIHISQSDGRYTIAIYENGKPIRTVPFPGPVDDAIERALKKLSAGGS [r8_276_TrROS],1.66 ± 0.034,2.05 ± 0.032,1.93 ± 0.054
SAGGIKIMIPPGMPEEEARELARMIASMLPDNGHNIDDVKVRPVKPMPPPDGEPHRMYEFEIKLEPPSAGGS [r16_266_TrROS],1.01 ± 0.035,0.35 ± 0.1,0.738 ± 0.11
SAGGIKIQDPDDGEWIEFPLPIRNPGDGKPYPFKVEIPVRRDPENGRPYFYIEIEFPGNGRKMTFPLRSAGG [r13_262_TrROS],0.518 ± 0.06,1.12 ± 0.058,0.918 ± 0.057
SAGGIKPDEPAIVLVKIPLPPGPNPEGGLEGPVLKTFPLEVGFPSLEELIEAVKELFPEGTEVEIIPSAGGS [r16_282_TrMRF],1.06 ± 0.042,-0.431 ± 0.13,0.455 ± 0.1
SAGGIRIDDEGMIQIYFPGWRHTIPIKPNLEITEITIPDDGYIKITFRIPGKTVKHEFPMLPPGQEISAGGS [r16_635_TrROS],2.35 ± 0.082,1.32 ± 0.1,1.82 ± 0.27
SAGGIRIKPGQILVIDIERPTGNERKIIIPMDDPEEVIEQLGFPPENFRIKDIEVVPMPPEQAKDFLESAGG [r13_850_TrROS],-0.0896 ± 0.28,0.585 ± 0.1,0.321 ± 0.17
SAGGITIRGMPWEWAEEIAKTLAQEGYRLKDVEVEEDPPDGYYSVTVQQRDPETGKPKKPVTISIPPSAGGS [r16_750_TrROS],0.594 ± 0.13,0.0769 ± 0.44,0.515 ± 0.43
SAGGITIVWQPGYFRIEFPGNGNTVPIPIPPDDPGRTLEEFADEFIDEMSERFGIPPPEDIKIEYYDSAGGS [r8_402_TrROS],1.31 ± 0.13,1.36 ± 0.084,1.39 ± 0.15

Sequence,folding stability dG unfold [1] [kcal/mol],folding stability dG unfold [2] [kcal/mol],folding stability dG unfold [3] [kcal/mol]
SAGGIVEEAIKKLFESGIPLSEEEIKEIIEKAIKEENEKKGKKIEKIEIGEIKFNPETGYAPIKIKASAGGS [r16_365_TrMRF],-0.383 ± 0.48,1.44 ± 0.13,0.856 ± 0.83
SAGGIVPLPNGHWVIMAQFEVDEGQTVDDAPEFAREIAKTFGIKPTQVQVDPEKGYVNVAIKIPPGALSAGG [r13_178_TrROS],0.217 ± 0.11,0.263 ± 0.35,0.327 ± 0.25
SAGGIVVGEEGVVRITGPGEPVIIPLPENSEVVEIDVPDDGYVRITLRVDGKTVTVDFPSAPPGLTLSAGGS [r16_635_TrMRF],1.34 ± 0.038,0.355 ± 0.041,0.927 ± 0.051
SAGGIVVKVADGSYVRIVVYDPNNPVPRIETFPGGGVDDVIAAIAASPSFPNTVVYVERFDDGKPYPASAGG [r13_914_TrMRF],0.871 ± 0.043,0.664 ± 0.055,0.747 ± 0.075
SAGGKEIEELAKKLAEELGVEVVKVEVEKVGPDTVKVTVTLKDGKKIKIEIKKKKDGSYEIKVEIEPSAGGS [r8_284_TrROS_Hall],3.08 ± 0.19,2.63 ± 0.22,2.97 ± 0.3
SAGGKEIKIEVELDEDGNLTVTITLPDGRVVRITFTPGKITVEVFDAETGELVEEKTLTADELLELLSAGGS [r8_476_TrROS_Hall],3.46 ± 0.16,3.81 ± 0.13,3.67 ± 0.13
SAGGKEIYVVRIEVYYPSNGKVEEKEYVIEATPEEAEELAKKIAEAFKEEAGEEVEVLRVEIKVYDLSAGGS [r16_140_TrMRF],3.82 ± 0.22,4.68 ± 0.072,4.65 ± 0.12
SAGGKEVKITFKAPKEEAVPKVKKAAEEYGVTVKSIDYDPETGKVTVVVDDSVPEEKVKEAFEKVLKSAGGS [r8_338_TrMRF],1.53 ± 0.078,1.75 ± 0.082,1.75 ± 0.21
SAGGKEVVIVFPLPENFEAEIFIPDRPVVRLENGLLVAVAPENVPALIVIRNPNGEELVLPVELLDLSAGGS [r8_72_TrMRF],1.27 ± 0.037,1.28 ± 0.014,1.32 ± 0.084
SAGGKEYYLVKIEIEVTPENGKKETIEIELIVDGNPEEALKKAKEIAEYLEKKGFKVEIKKIEVYPASAGGS [r16_525_TrMRF],3.9 ± 0.15,4.55 ± 0.073,4.54 ± 0.15
SAGGKIEEVARELAKELNAVSIDFRTEGDVPSVEIRFRIPGSPLWLRVTITRDPDGNISVSIEPDPRSAGGS [r16_433_TrMRF],2.94 ± 0.054,4.16 ± 0.074,3.75 ± 0.09
SAGGKIKIMDIEIERHGGYYKIEIWIQVDTPDDIEDLLKAGVPNVEVERRRNPNGRLYVQAEFYIPAGSAGG [r13_506_TrROS],1.74 ± 0.11,3.49 ± 0.17,3.14 ± 0.26
SAGGKIKIRNPKTGLIVEVLEYNPETGKFKVKVTFPDGSVEEKEFPGSLEDLIEWLESEGFPFEVEGSAGGS [r16_748_TrMRF],2.26 ± 0.13,3.72 ± 0.13,3.37 ± 0.16
SAGGKIKKGETVKIKIEIENKNGEKKTIELEVKKEDLEKLKELIEKLKEKGFKIKKIEIKVLKKEKKSAGGS [r8_497_TrROS_Hall],1.02 ± 0.13,2.96 ± 0.03,2.51 ± 0.2
SAGGKIKVTVEKEENGTYRVTVEITLPDGKKITITVTVPPGVKTEEEAKKLAEEKVKELLKKLGIKPSAGGS [r8_464_TrROS_Hall],3.72 ± 0.15,4.27 ± 0.14,4.11 ± 0.16
SAGGKILIYPGSIEEAIEALKANPNTTVLVISPDGTLIEITVEELGPGPFKIDIKVIPLLPPLKPDEASAGG [r13_56_TrMRF],1.6 ± 0.043,2.212 ± 0.021,1.97 ± 0.069
SAGGKITAFVLVELPDGSVVERTYEFERLDDLLAFLEADPGPKLADLEIIPPEGSDDIIIPLVARVEPSAGG [r13_796_TrMRF],0.883 ± 0.041,2.15 ± 0.053,1.77 ± 0.1
SAGGKITIEVTYNKETGEITIRITFNGKTIEIKIKVPGLSEEEVKKLAEELAKKLKEKYGIDKVEITSAGGS [r16_249_TrROS_Hall],4.36 ± 0.45,4.4 ± 0.11,4.36 ± 0.29
SAGGKKEKIVEIKLLDMSYDPENKTVTFKFLVKLENGEEKVIELKISAEDFEKMSLEDILKAVKDFFESAGG [r13_512_TrMRF],3.74 ± 0.16,4.83 ± 0.09,4.72 ± 0.15
SAGGKKEVILVIEIDLPESEEELLEEAERLAKELAELLGKEREVEVEVIEKDGKLIIVLRINGKEIVLSAGG [r13_845_TrROS_Hall],2.78 ± 0.23,2.68 ± 0.051,2.52 ± 0.32
SAGGKKFKIKEITITYNPDADTVTMTVKLDDGTTVELTFNKETKKLTVKVINKDTGEEKEFEFTLPDSAGGS [r8_363_TrROS_Hall],3.1 ± 0.17,4.9 ± 0.25,4.77 ± 0.24
